Source: publication PMC11176775 (2024)
Blank lines part the entries; values can stand above or below the binder they belong to.

Target: Apurinic/apyrimidinic-endonuclease 1 (UniProt P27695 1-318)
Test: SPR

Chain of Apurinic/apyrimidinic-endonuclease 1 (P27695 whole entry): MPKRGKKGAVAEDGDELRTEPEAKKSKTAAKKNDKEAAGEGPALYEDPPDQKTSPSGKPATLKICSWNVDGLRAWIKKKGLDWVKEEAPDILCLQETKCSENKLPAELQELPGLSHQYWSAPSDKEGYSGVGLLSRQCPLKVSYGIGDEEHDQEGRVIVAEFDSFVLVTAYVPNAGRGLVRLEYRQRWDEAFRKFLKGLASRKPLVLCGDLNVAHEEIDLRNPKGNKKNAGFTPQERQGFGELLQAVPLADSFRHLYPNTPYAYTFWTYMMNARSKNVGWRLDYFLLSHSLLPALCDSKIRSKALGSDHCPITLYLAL

Kd: 4.9 nM
B1: LIGIIIα▵ZnF (170–922 amino acids) (domain or fragment)
chain: RHKDCLLREFRKLCAMVADNPSYNTKTQIIQDFLRKGSAGDGFHGDVYLTVKLLLPGVIKTVYNLNDKQIVKLFSRIFNCNPDDMARDLEQGDVSETIRVFFEQSKSFPPAAKSLLTIQEVDEFLLRLSKLTKEDEQQQALQDIASRCTANDLKCIIRLIKHDLKMNSGAKHVLDALDPNAYEAFKASRNLQDVVERVLHNAQEVEKEPGQRRALSVQASLMTPVQPMLAEACKSVEYAMKKCPNGMFSEIKYDGERVQVHKNGDHFSYFSRSLKPVLPHKVAHFKDYIPQAFPGGHSMILDSEVLLIDNKTGKPLPFGTLGVHKKAAFQDANVCLFVFDCIYFNDVSLMDRPLCERRKFLHDNMVEIPNRIMFSEMKRVTKALDLADMITRVIQEGLEGLVLKDVKGTYEPGKRHWLKVKKDYLNEGAMADTADLVVLGAFYGQGSKGGMMSIFLMGCYDPGSQKWCTVTKCAGGHDDATLARLQNELDMVKISKDPSKIPSWLKVNKIYYPDFIVPDPKKAAVWEITGAEFSKSEAHTADGISIRFPRCTRIRDDKDWKSATNLPQLKELYQLSKEKADFTVVAGDEGSSTTGGSSEENKGPSGSAVSRKAPSKPSASTKKAEGKLSNSNSKDGNMQTAKPSAMKVGEKLATKSSPVKVGEKRKAADETLCQTKVLLDIFTGVRLYLPPSTPDFSRLRRYFVAFDGDLVQEFDMTSATHVLGSRDKNPAAQQVSPEWIWACIRKRRLVAPC

Kd: 1050 nM
B2: LIGIIIα▵BRCT (1–755 amino acids) (domain or fragment)
chain: MAEQRFCVDYAKRGTAGCKKCKEKIVKGVCRIGKVVPNPFSESGGDMKEWYHIKCMFEKLERARATTKKIEDLTELEGWEELEDNEKEQITQHIADLSSKAAGTPKKKAVVQAKLTTTGQVTSPVKGASFVTSTNPRKFSGFSAKPNNSGEAPSSPTPKRSLSSSKCDPRHKDCLLREFRKLCAMVADNPSYNTKTQIIQDFLRKGSAGDGFHGDVYLTVKLLLPGVIKTVYNLNDKQIVKLFSRIFNCNPDDMARDLEQGDVSETIRVFFEQSKSFPPAAKSLLTIQEVDEFLLRLSKLTKEDEQQQALQDIASRCTANDLKCIIRLIKHDLKMNSGAKHVLDALDPNAYEAFKASRNLQDVVERVLHNAQEVEKEPGQRRALSVQASLMTPVQPMLAEACKSVEYAMKKCPNGMFSEIKYDGERVQVHKNGDHFSYFSRSLKPVLPHKVAHFKDYIPQAFPGGHSMILDSEVLLIDNKTGKPLPFGTLGVHKKAAFQDANVCLFVFDCIYFNDVSLMDRPLCERRKFLHDNMVEIPNRIMFSEMKRVTKALDLADMITRVIQEGLEGLVLKDVKGTYEPGKRHWLKVKKDYLNEGAMADTADLVVLGAFYGQGSKGGMMSIFLMGCYDPGSQKWCTVTKCAGGHDDATLARLQNELDMVKISKDPSKIPSWLKVNKIYYPDFIVPDPKKAAVWEITGAEFSKSEAHTADGISIRFPRCTRIRDDKDWKSATNLPQLKELYQLSKEKADFTVVA
